# Results: patent US20220251227A1 (Eli Lilly, published 2022)
# T1: human GITR (human, UniProt Q9Y5U5 26-241)
# T1 sequence: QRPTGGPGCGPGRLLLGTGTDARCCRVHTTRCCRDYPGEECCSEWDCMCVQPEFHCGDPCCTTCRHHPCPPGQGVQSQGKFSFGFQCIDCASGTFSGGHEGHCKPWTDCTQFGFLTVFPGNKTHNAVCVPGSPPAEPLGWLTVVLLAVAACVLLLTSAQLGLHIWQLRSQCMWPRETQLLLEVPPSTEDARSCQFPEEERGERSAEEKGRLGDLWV
# Experiments:
# human GITR [1] = target: T1, human GITR; experiment: cell-based or functional assay
# cynomolgus monkey GITR [2] = target: cynomolgus monkey GITR (cynomolgus monkey); experiment: cell-based or functional assay
# human GITR [3] = target: T1, human GITR; experiment: cell-based or functional assay; remark: listed apart in the source
# human GITR [4] = target: T1, human GITR; experiment: cell-based or functional assay; remark: listed apart in the source
# Rabbit serum albumin = target: T2, Rabbit serum albumin (rabbit, UniProt P49065 25-608); experiment: SPR, Biacore 8K, albumin immobilized on CM5, 25 C
# T2 construct: Bought protein, immobilized on a CM5 chip by amine coupling at 118 RU; also called Rabbit SA
# Method: Binding of Antibody I and Antibody II to various serum albumins is carried out on Biacore 8K instrument. The immobilization of the serum albumin to a Series S Sensor Chip CM5 (Cytiva 29149603) surface is performed according to the manufacturer's instructions (Amine Coupling Kit BR-1000-50). Briefly, carboxyl groups on the sensor chip surfaces (flow cell 1 and 2) are activated by injecting 70 μL of a mixture containing 75 mg/ml 1-Ethyl-3-(3-dimethylaminopropyl) carbodiimide hydrochloride (EDC), and 11.5 mg/ml N-Hydroxysuccinimide (NHS) at 10 μl/min. Human, cynomolgus monkey, rat, mouse, dog, pig, cow, and rabbit serum albumin are diluted in 10 mM sodium acetate pH 4.0 (BR-1003-49) at 0.8, 0.8, 0.8, 2.5, 0.8, 1, 1, and 1.5 μg/m1 then injected over the activated chip surfaces (flow cell 2, channel 1 to 8) at 10 μl/min for 100 seconds. […]
# The antibodies of Examples 1 and 2 (i.e., Antibody I and II, respectively) are diluted in HBS-EP+buffer (10 mM HEPES pH 7.6, 150 mM NaCl, 3 mM EDTA, 0.05% Polysorbate 20) at concentrations of 1000, 333.3, 111.1, 37.04, 12.35, 4.12, 1.37, 0.457, 0.152, 0.051 and 0.017 nM. […] The resulting sensorgrams are analyzed using Biacore 8K Insight Evaluation Software (version 3.0.11.15423) 1:1 binding kinetics model fitting to calculate the binding kinetic parameters: association rate (ka), dissociation rate (kd), and equilibrium dissociation constant (KD).
# Human serum albumin = target: T3, Human serum albumin (human, UniProt P02768 25-609); experiment: SPR, Biacore 8K, albumin immobilized on CM5, 25 C, 1:1 model
# T3 construct: Bought protein, immobilized on a CM5 chip by amine coupling; also called Human SA
# Method: (§1) Binding of Antibody I and Antibody II to various serum albumins is carried out on Biacore 8K instrument. The immobilization of the serum albumin to a Series S Sensor Chip CM5 (Cytiva 29149603) surface is performed according to the manufacturer's instructions (Amine Coupling Kit BR-1000-50). Briefly, carboxyl groups on the sensor chip surfaces (flow cell 1 and 2) are activated by injecting 70 μL of a mixture containing 75 mg/ml 1-Ethyl-3-(3-dimethylaminopropyl) carbodiimide hydrochloride (EDC), and 11.5 mg/ml N-Hydroxysuccinimide (NHS) at 10 μl/min. Human, cynomolgus monkey, rat, mouse, dog, pig, cow, and rabbit serum albumin are diluted in 10 mM sodium acetate pH 4.0 (BR-1003-49) at 0.8, 0.8, 0.8, 2.5, 0.8, 1, 1, and 1.5 μg/m1 then injected over the activated chip surfaces (flow cell 2, channel 1 to 8) at 10 μl/min for 100 seconds. Human serum albumin was obtained from Sigma Aldrich (St. Louis, Mo.) (Cat. No. A8763).
# (§2) The serum albumins are covalently immobilized through free amines onto a carboxymethyl dextran-coated sensor chip CM5 at surface densities of 29-52 resonance units (RU) for human, cynomolgus monkey, rat, mouse, dog, pig, and cow as well as 118 resonance units (RU) for rabbit serum albumin. Excess reactive groups on the surfaces (flow cell 1 and 2) are deactivated by injecting 70 μl of 1 M Ethanolamine hydrochloride-NaOH pH 8.5.
# (§3) The antibodies of Examples 1 and 2 (i.e., Antibody I and II, respectively) are diluted in HBS-EP+buffer (10 mM HEPES pH 7.6, 150 mM NaCl, 3 mM EDTA, 0.05% Polysorbate 20) at concentrations of 1000, 333.3, 111.1, 37.04, 12.35, 4.12, 1.37, 0.457, 0.152, 0.051 and 0.017 nM. 180 μl of sample are individually injected sequentially across the immobilized serum albumins on the chip's surface and dissociated for 600 sec at 60 μl/min flow rate at 25° C. The surface is regenerated by injecting 10 mM glycine-HCl pH 1.5 (BR-1003-54) at 60 μl/min for 100 sec. The resulting sensorgrams are analyzed using Biacore 8K Insight Evaluation Software (version 3.0.11.15423) 1:1 binding kinetics model fitting to calculate the binding kinetic parameters: association rate (ka), dissociation rate (kd), and equilibrium dissociation constant (KD).
# [5] = target: T4, Cynomolgus monkey serum albumin (cynomolgus monkey, UniProt A2V9Z4 25-608); experiment: as above
# T4 construct: Bought protein, immobilized on a CM5 chip by amine coupling; also called Cyno SA
# Method: as §1, §2, §3
# Mouse serum albumin = target: T5, Mouse serum albumin (mouse, UniProt P07724 25-608); experiment: as above
# T5 construct: Bought protein, immobilized on a CM5 chip by amine coupling; also called Mouse SA
# Method: as §1, §2, §3
# Rat serum albumin = target: T6, Rat serum albumin (rat, UniProt P02770 25-608); experiment: as above
# T6 construct: Bought protein, immobilized on a CM5 chip by amine coupling; also called Rat SA
# Method: as §1, §2, §3
# Pig serum albumin = target: T7, Pig serum albumin (pig, UniProt P08835 25-607); experiment: as above
# T7 construct: Bought protein, immobilized on a CM5 chip by amine coupling; also called Pig SA
# Method: as §1, §2, §3
# Dog serum albumin = target: T8, Dog serum albumin (dog, UniProt P49822 25-608); experiment: as above
# T8 construct: Bought protein, immobilized on a CM5 chip by amine coupling; also called Dog SA
# Method: as §1, §2, §3
# Cow serum albumin = target: T9, Cow serum albumin (cow, UniProt P02769 25-607); experiment: as above
# T9 construct: Bought protein, immobilized on a CM5 chip by amine coupling; also called Cow SA
# Method: as §1, §2, §3
# cynomolgus monkey GITR [6] = target: T10, cynomolgus monkey GITR (cynomolgus monkey); experiment: flow cytometry on Jurkat cyno GITR/NFkBluc cells, anti-kappa PE detection, geometric mean of 3
# T10 construct: whole, on cells; Stood on Jurkat cyno GITR/NFkBluc cells; also called cyno GITR
# Method: Jurkat human GITR/NFkB-Luc2 and Jurkat cynomolgus monkey GITR/NFkBluc cells are resuspended in FACS buffer (PBS+1% BSA+0.01% sodium azide) at 1 million cells/mL and 5 μl Fc block/mL (BioLegend) is added and incubated at 4° C. for 20 min. Cells are washed with FACS buffer and resuspended at 1e6 cells/mL in FACS buffer and added to a polypropylene 96-well plate at 100 μl/well for 100,000 cells/well. 100 μl/well of 2X antibody dose titrations diluted in FACS buffer are added to cells and incubated 45 minutes at 4° C. Cells are washed twice with 200 μl/well FACS buffer and resuspended in 12.5 μg/mL anti-human Ig light chain kappa/PE secondary antibody (Invitrogen #PA1-74408) in FACS buffer and incubated for 45 minutes at 4° C. Cells are washed twice with 200 μl/well FACS buffer and resuspended in 200 μl FACS buffer. Samples are read on a Millipore EasyCyte Cytometer and median fluorescence intensity values are calculated using GuavaSoft 3.3 InCyte software. EC₅₀ values are calculated for each of 3 experiment replicates and the EC₅₀ Geometric Mean +/−Error (Delta Method) is calculated from these 3 results. The cell binding results shown in Table 5 indicate that both Antibody I and Antibody II bind potently to human GITR and cynomolgus monkey GITR (“cyno GITR”).
# human GITR [7] = target: T1, human GITR; experiment: flow cytometry on Jurkat human GITR/NFkB-Luc2 cells, anti-kappa PE detection, geometric mean of 3
# Method: Jurkat human GITR/NFkB-Luc2 cells (CS184004) were purchased from Promega and maintained in RPMI1640 media+10% FBS (HyClone SH30070.3)+400 μg/mL hygromycin B+600 μg/mL G418.
# Jurkat human GITR/NFkB-Luc2 and Jurkat cynomolgus monkey GITR/NFkBluc cells are resuspended in FACS buffer (PBS+1% BSA+0.01% sodium azide) at 1 million cells/mL and 5 μl Fc block/mL (BioLegend) is added and incubated at 4° C. for 20 min. Cells are washed with FACS buffer and resuspended at 1e6 cells/mL in FACS buffer and added to a polypropylene 96-well plate at 100 μl/well for 100,000 cells/well. 100 μl/well of 2X antibody dose titrations diluted in FACS buffer are added to cells and incubated 45 minutes at 4° C. Cells are washed twice with 200 μl/well FACS buffer and resuspended in 12.5 μg/mL anti-human Ig light chain kappa/PE secondary antibody (Invitrogen #PA1-74408) in FACS buffer and incubated for 45 minutes at 4° C. Cells are washed twice with 200 μl/well FACS buffer and resuspended in 200 μl FACS buffer. Samples are read on a Millipore EasyCyte Cytometer and median fluorescence intensity values are calculated using GuavaSoft 3.3 InCyte software. EC₅₀ values are calculated for each of 3 experiment replicates and the EC₅₀ Geometric Mean +/−Error (Delta Method) is calculated from these 3 results. […]
"IC50 nM GeoMean, inhibition of GITRL stimulation of Jurkat GITR/NFkB luciferase cells (human GITR [1]) [nM]","IC50 nM GeoMean, inhibition of GITRL stimulation of Jurkat GITR/NFkB luciferase cells (cynomolgus monkey GITR [2]) [nM]","IC50 nM GeoMean, inhibition of GITRL co-stimulation of T cell proliferation (human GITR [3]) [nM]","IC50 nM Mean, restoration of regulatory T cell suppression of effector T cell proliferation in the presence of GITRL (human GITR [4]) [nM]",Kd (Human serum albumin) [nM],koff (Human serum albumin) [s⁻¹],kon (Human serum albumin) [M⁻¹ s⁻¹],Kd [5] [nM],koff [5] [s⁻¹],kon [5] [M⁻¹ s⁻¹],Kd (Mouse serum albumin) [nM],koff (Mouse serum albumin) [s⁻¹],kon (Mouse serum albumin) [M⁻¹ s⁻¹],Kd (Rat serum albumin) [nM],koff (Rat serum albumin) [s⁻¹],kon (Rat serum albumin) [M⁻¹ s⁻¹],Kd (Pig serum albumin) [nM],koff (Pig serum albumin) [s⁻¹],kon (Pig serum albumin) [M⁻¹ s⁻¹],Binder,binding result (Rabbit serum albumin),also measured
4.1,2.27,4.76,4.69,0.25,6.5e-05,260000,4.4,0.00082,190000,53,0.0094,180000,44,0.007,160000,100,0.013,120000,"Antibody I (Fab, Monovalent anti-GITR Fab; also called HC anti-GITR Fab-VHH Fusion 1 with LC) heavy: not shown light: DIQMTQSPSSLSASVGDRVTITCRASQDISNSLAWYQQKPGKAPKRLIYAAFSLQSGVPSRFSGSGSGTEFTLTISSLQPEDFATYYCYQYYNYPSAFGQGTKLEIKRTVAAPSVFIFPPSDEQLKSGTASVVCLLNNFYPREAKVQWKVDNALQSGNSQESVTEQDSKDSTYSLSSTLTLSKADYEKHKVYACEVTHQGLSSPVTKSFNRGEC",no binding (tested: 1000 nM highest concentration tested),Kd (Dog serum albumin): 20 nM; koff (Dog serum albumin): 0.0035 s⁻¹; kon (Dog serum albumin): 170000 M⁻¹ s⁻¹; Kd (Cow serum albumin): 460 nM; koff (Cow serum albumin): 0.091 s⁻¹; kon (Cow serum albumin): 200000 M⁻¹ s⁻¹; EC50 (cynomolgus monkey GITR [6]): 3.06 nM; EC50 (human GITR [7]): 6.8 nM
1.68,1.26,1.84,2.72,0.4,7.8e-05,190000,5.9,0.00087,150000,42,0.0096,230000,51,0.0073,140000,99,0.012,120000,"Antibody II (Fab, Monovalent anti-GITR Fab; also called HC anti-GITR Fab-VHH Fusion 2 with LC) heavy: not shown light: DIQMTQSPSSLSASVGDRVTITCRASQDISNSLAWYQQKPGKAPKRLIYAAFSLQSGVPSRFSGSGSGTEFTLTISSLQPEDFATYYCYQYYNYPSAFGQGTKLEIKRTVAAPSVFIFPPSDEQLKSGTASVVCLLNNFYPREAKVQWKVDNALQSGNSQESVTEQDSKDSTYSLSSTLTLSKADYEKHKVYACEVTHQGLSSPVTKSFNRGEC",no binding (tested: 1000 nM highest concentration tested),Kd (Dog serum albumin): 20 nM; koff (Dog serum albumin): 0.0034 s⁻¹; kon (Dog serum albumin): 170000 M⁻¹ s⁻¹; Kd (Cow serum albumin): 430 nM; koff (Cow serum albumin): 0.087 s⁻¹; kon (Cow serum albumin): 200000 M⁻¹ s⁻¹; EC50 (cynomolgus monkey GITR [6]): 2.34 nM; EC50 (human GITR [7]): 3.25 nM
